Reference: IntAct's records for PubMed 16461343

B1: Tyrosine-protein phosphatase non-receptor type 22 (Homo sapiens), Q9Y2R2 (parent)
chain: MDQREILQKFLDEAQSKKITKEEFANEFLKLKRQSTKYKADKTYPTTVAEKPKNIKKNRYKDILPYDYSRVELSLITSDEDSSYINANFIKGVYGPKAYIATQGPLSTTLLDFWRMIWEYSVLIIVMACMEYEMGKKKCERYWAEPGEMQLEFGPFSVSCEAEKRKSDYIIRTLKVKFNSETRTIYQFHYKNWPDHDVPSSIDPILELIWDVRCYQEDDSVPICIHCSAGCGRTGVICAIDYTWMLLKDGIIPENFSVFSLIREMRTQRPSLVQTQEQYELVYNAVLELFKRQMDVIRDKHSGTESQAKHCIPEKNHTLQADSYSPNLPKSTTKAAKMMNQQRTKMEIKESSSFDFRTSEISAKEELVLHPAKSSTSFDFLELNYSFDKNADTTMKWQTKAFPIVGEPLQKHQSLDLGSLLFEGCSNSKPVNAAGRYFNSKVPITRTKSTPFELIQQRETKEVDSKENFSYLESQPHDSCFVEMQAQKVMHVSSAELNYSLPYDSKHQIRNASNVKHHDSSALGVYSYIPLVENPYFSSWPPSGTSSKMSLDLPEKQDGTVFPSSLLPTSSTSLFSYYNSHDSLSLNSPTNISSLLNQESAVLATAPRIDDEIPPPLPVRTPESFIVVEEAGEFSPNVPKSLSSAVKVKIGTSLEWGGTSEPKKFDDSVILRPSKSVKLRSPKSELHQDRSSPPPPLPERTLESFFLADEDCMQAQSIETYSTSYPDTMENSTSSKQTLKTPGKSFTRSKSLKILRNMKKSICNSCPPNKPAESVQSNNSSSFLNFGFANRFSKPKGPRNPPPTWNI

How the values were obtained:
[1] = variants of: B1; details: with lck_human LCK
[2] = variants of: B1; details: with zap70_human ZAP70, P43403
[3] = variants of: B1; details: with cd3z_human CD247, P20963

Measured: effect of a mutation on the interaction

Sequence of cd3z_human CD247, P20963 (P20963 whole entry): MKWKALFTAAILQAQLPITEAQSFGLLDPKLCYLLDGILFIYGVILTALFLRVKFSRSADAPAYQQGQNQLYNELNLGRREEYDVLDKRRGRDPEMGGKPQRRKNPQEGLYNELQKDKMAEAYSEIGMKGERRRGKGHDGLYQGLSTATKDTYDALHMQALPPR
Sequence of zap70_human ZAP70, P43403 (P43403 whole entry): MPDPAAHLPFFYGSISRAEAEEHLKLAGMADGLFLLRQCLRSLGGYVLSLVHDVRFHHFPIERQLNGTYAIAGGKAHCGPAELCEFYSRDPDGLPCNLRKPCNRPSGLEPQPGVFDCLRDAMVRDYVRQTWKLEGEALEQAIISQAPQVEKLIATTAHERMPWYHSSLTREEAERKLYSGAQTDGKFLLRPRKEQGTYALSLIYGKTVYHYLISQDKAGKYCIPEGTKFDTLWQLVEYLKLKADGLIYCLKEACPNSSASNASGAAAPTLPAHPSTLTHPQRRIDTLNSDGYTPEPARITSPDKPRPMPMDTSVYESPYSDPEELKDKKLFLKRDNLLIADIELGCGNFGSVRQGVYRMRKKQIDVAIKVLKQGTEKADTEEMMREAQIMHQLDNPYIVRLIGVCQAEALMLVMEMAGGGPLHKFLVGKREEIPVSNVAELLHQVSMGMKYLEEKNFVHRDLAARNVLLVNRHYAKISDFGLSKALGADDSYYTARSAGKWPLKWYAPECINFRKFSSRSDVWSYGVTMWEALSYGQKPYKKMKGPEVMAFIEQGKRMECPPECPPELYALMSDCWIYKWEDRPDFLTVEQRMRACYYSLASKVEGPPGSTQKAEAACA

D195A
increasing interaction: all assays above

C227S
increasing interaction: all assays above
